# Measured values taken from paper PMC6862464, “Structural Insights into AQP2 Targeting to Multivesicular Bodies” (International Journal of Molecular Sciences, 2019).
# T1: full-length human LIP5 M64A (human, UniProt Q9NP79 1-307, M64A)
# T1 construct: LIP5, human, full length, point mutant; spacer before the TEV site and His tag, as in m2; Mutant of m2; dimer as said of full-length LIP5 (cited); source: E. coli BL21*(DE3), purified (HisTrap, SEC)
# T1 sequence: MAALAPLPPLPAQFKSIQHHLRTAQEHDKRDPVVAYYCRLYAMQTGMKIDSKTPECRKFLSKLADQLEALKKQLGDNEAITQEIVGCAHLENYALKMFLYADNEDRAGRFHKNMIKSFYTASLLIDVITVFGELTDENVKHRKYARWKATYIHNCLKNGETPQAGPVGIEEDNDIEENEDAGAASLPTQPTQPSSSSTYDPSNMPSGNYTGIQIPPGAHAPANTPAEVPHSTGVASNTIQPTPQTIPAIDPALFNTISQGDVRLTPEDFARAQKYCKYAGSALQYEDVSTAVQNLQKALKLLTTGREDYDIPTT
# T2: full-length human lysosomal trafficking regulator-interacting protein 5 (FL-LIP5) (human, UniProt Q9NP79 1-307)
# T2 construct: spacer between the last LIP5 residue and the TEV protease site that precedes the His tag; same tag, TEV site and linker as ND-LIP5; No TEV cleavage is described; also called full-length LIP5; wild-type LIP5; source: E. coli BL21*(DE3), purified (HisTrap, SEC)
# T2 sequence: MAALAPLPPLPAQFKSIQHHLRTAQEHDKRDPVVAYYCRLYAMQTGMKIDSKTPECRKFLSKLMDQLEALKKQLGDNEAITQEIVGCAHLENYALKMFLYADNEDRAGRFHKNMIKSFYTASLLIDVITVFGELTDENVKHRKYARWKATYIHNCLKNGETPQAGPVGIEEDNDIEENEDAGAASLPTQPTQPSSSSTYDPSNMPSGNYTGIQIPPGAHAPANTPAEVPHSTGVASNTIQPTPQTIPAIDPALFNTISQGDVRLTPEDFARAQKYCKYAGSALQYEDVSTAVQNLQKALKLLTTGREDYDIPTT
# T3: full-length human LIP5 E68A (human, UniProt Q9NP79 1-307, E68A)
# T3 construct: LIP5, human, full length, point mutant; spacer before the TEV site and His tag, as in m2; Mutant of m2; dimer as said of full-length LIP5 (cited); source: E. coli BL21*(DE3), purified (HisTrap, SEC)
# T3 sequence: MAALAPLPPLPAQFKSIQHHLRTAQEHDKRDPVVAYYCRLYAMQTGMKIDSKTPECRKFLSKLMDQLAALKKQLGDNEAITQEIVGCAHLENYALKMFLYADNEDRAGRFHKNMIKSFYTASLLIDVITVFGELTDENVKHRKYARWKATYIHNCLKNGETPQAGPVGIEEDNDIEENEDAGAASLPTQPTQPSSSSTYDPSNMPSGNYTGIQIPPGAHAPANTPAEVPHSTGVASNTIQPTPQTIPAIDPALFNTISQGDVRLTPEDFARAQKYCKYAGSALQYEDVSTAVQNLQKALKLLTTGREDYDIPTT
# T4: full-length human LIP5 L67A (human, UniProt Q9NP79 1-307, L67A)
# T4 construct: LIP5, human, full length, point mutant; spacer before the TEV site and His tag, as in m2; Mutant of m2; dimer as said of full-length LIP5 (cited); source: E. coli BL21*(DE3), purified (HisTrap, SEC)
# T4 sequence: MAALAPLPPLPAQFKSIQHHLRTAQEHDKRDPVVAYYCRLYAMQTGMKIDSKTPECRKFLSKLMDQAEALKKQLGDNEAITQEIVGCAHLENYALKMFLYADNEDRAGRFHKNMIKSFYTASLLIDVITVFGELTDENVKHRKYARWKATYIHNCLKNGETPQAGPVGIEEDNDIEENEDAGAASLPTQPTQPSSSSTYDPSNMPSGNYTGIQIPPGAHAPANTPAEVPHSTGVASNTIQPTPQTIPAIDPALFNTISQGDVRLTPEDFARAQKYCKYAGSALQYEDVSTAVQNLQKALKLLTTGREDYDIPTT
# T5: full-length human LIP5 M43A (human, UniProt Q9NP79 1-307, M43A)
# T5 construct: LIP5, human, full length, point mutant; spacer before the TEV site and His tag, as in m2; Mutant of m2; dimer as said of full-length LIP5 (cited); source: E. coli BL21*(DE3), purified (HisTrap, SEC)
# T5 sequence: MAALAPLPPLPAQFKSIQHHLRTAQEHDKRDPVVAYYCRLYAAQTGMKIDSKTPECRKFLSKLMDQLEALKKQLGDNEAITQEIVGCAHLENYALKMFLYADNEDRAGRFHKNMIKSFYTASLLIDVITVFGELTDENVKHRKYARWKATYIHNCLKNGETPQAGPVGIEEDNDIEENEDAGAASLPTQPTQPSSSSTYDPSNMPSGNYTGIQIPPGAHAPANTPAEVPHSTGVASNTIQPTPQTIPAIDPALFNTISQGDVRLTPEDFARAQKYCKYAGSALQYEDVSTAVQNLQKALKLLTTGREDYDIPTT
# T6: full-length human LIP5 M47A (human, UniProt Q9NP79 1-307, M47A)
# T6 construct: LIP5, human, full length, point mutant; spacer before the TEV site and His tag, as in m2; Mutant of m2; dimer as said of full-length LIP5 (cited); source: E. coli BL21*(DE3), purified (HisTrap, SEC)
# T6 sequence: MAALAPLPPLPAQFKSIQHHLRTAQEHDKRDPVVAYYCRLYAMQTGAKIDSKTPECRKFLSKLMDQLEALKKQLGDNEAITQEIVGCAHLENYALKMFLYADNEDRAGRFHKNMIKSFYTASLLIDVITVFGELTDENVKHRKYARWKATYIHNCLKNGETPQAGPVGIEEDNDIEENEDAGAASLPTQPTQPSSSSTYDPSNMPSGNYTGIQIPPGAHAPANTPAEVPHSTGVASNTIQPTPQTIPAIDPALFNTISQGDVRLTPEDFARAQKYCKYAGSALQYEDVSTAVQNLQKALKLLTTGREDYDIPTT
# Legend:
# Test in all cases: other fluorescence titration; Alexa 488-labeled, dephosphorylated AQP2 (around 1 uM) in the cuvette, titrated with unlabeled LIP5; total fluorescence; 20 mM Tris-HCl pH 8, 300 mM NaCl, 0.2% OGNG; triplicate titrations
# Conditions in all cases: both partners purified
# [1] = molecular target: T1, full-length human LIP5 M64A
# [2] = molecular target: T2, full-length human lysosomal trafficking …
# [3] = molecular target: T3, full-length human LIP5 E68A
# [4] = molecular target: T4, full-length human LIP5 L67A
# [5] = molecular target: T5, full-length human LIP5 M43A
# [6] = molecular target: T6, full-length human LIP5 M47A
binder,measurement,setting,value
"human aquaporin 2 (AQP2), wild-type (natural protein, UniProt P41181 1-271, looked up, cysteine residues labeled with C5 maleimide Alexa 488; dephosphorylated with alkaline phosphatase before labeling, concentrations and molar ratios seem to count monomers; His-tag is called uncleavable; also called WT; labeled AQP2; source: Pichia pastoris, purified (HisTrap, SEC) in OGNG; not shown: His-tag, N-terminal, kept) MWELRSIAFSRAVFAEFLATLLFVFFGLGSALNWPQALPSVLQIAMAFGLGIGTLVQALGHISGAHINPAVTVACLVGCHVSVLRAAFYVAAQLLGAVAGAALLHEITPADIRGDLAVNALSNSTTAGQAVTVELFLTLQLVLCIFASTDERRGENPGTPALSIGFSVALGHLLGIHYTGCSMNPARSLAPAVVTGKFDDHWVFWIGPLVGAILGSLLYNYVLFPPAKSLSERLAVLKGLEPDTDWEEREVRRRQSVELHSPQSLPRGTKA",Kd,[1],271 nM
same,Kd,[2],237 nM
same,Kd,[3],243 nM
same,Kd,[4],298 nM
same,Kd,[5],457 nM
same,Kd,[6],463 nM
